Measurements from patent publication US20160326532A1 (MAYO FOUNDATION FOR MEDICAL EDUCATION AND RESEARCH, published 2016).

Tests used:
HIF-1α, endogenous = biological target: T1, HIF-1α, endogenous (UniProt Q16665 1-826); assay: co-immunoprecipitation of endogenous proteins from HEK 293T cell extracts (FIG. 8A)
T1 construct: also called HIF-1alpha; hypoxia-inducible factor 1 alpha
Method: To study endogenous WSB1/pVHL binding, cells were treated with or without 10 μM MG 132 (Sigma) for 2 hours. Cells were lysed by sonication in NETN buffer (20 mM Tris-HCl, pH 8.0, 100 mM NaCl, 1 mM EDTA, 0.5% Nonidet P-40) containing 50 mM b-glycerophosphate, 10 mM NaF, and […] each of pepstatin A and aprotinin, freshly supplemented with protease inhibitor cocktail (Roche). Prior to immunoprecipitation, protein A-bound Agarose beads were incubated overnight with pVHL antibody (Cell Signaling, #2738), WSB1 antibody (Abcam, ab68953; Sigma, HPA003293; Proteintech, 1166-1-AP), or HIF-1α antibody (Abcam, ab51608) in PBS with 5% BSA at 4° C. ab68953 was used for most experiments (HPA003293 for IHC). Extracts were added before immunoprecipitation with protein-A agarose at 4° C. for 4 hours. After three washings in binding buffer, co-purified proteins were analyzed by Western blotting.

HA-tagged HIF-1α = biological target: T2, HA-tagged HIF-1α (UniProt Q16665 1-826); assay: co-immunoprecipitation of exogenous proteins from HEK 293T cell extracts (FIG. 9A)
T2 construct: Plasmid from Addgene; also called exogenous HIF-1α; not shown: HA tag
T2 sequence (Q16665 whole entry): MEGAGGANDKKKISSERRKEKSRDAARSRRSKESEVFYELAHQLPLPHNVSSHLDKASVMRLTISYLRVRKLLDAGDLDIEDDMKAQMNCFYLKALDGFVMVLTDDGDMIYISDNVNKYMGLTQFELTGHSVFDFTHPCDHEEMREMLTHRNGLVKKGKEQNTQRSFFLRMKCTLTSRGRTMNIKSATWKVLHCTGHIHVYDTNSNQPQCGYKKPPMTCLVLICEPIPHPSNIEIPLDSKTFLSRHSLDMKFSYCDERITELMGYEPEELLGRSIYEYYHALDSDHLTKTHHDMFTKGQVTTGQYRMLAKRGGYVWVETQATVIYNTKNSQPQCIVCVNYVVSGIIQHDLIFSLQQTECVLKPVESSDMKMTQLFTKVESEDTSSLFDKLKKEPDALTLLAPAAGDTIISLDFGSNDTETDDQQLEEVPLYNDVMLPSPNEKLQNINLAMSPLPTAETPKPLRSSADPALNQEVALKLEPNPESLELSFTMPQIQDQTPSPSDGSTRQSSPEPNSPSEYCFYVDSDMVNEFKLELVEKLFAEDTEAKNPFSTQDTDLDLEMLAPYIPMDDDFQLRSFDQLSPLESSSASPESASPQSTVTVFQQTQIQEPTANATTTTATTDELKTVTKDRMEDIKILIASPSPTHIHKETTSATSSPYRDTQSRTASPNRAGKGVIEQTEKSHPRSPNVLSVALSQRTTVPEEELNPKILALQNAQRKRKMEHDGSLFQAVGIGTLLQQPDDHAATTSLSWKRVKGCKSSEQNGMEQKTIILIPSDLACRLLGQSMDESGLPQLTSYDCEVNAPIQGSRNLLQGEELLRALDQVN

T1 sequence (Q16665 whole entry): as above

B1: WD repeat and SOCS box-containing protein 1 (WSB1), endogenous (enzyme)
chain: MASFPPRVNEKEIVRLRTIGELLAPAAPFDKKCGRENWTVAFAPDGSYFAWSQGHRTVKLVPWSQCLQNFLLHGTKNVTNSSSLRLPRQNSDGGQKNKPREHIIDCGDIVWSLAFGSSVPEKQSRCVNIEWHRFRFGQDQLLLATGLNNGRIKIWDVYTGKLLLNLVDHTEVVRDLTFAPDGSLILVSASRDKTLRVWDLKDDGNMMKVLRGHQNWVYSCAFSPDSSMLCSVGASKAVFLWNMDKYTMIRKLEGHHHDVVACDFSPDGALLATASYDTRVYIWDPHNGDILMEFGHLFPPPTPIFAGGANDRWVRSVSFSHDGLHVASLADDKMVRFWRIDEDYPVQVAPLSNGLCCAFSTDGSVLAAGTHDGSVYFWATPRQVPSLQHLCRMSIRRVMPTQEVQELPIPSKLLEFLSYRI
notes: also called WBS1
B1: no binding (HIF-1α, endogenous).

B2: Myc-tagged WSB1 (WT) (enzyme)
chain: MASFPPRVNEKEIVRLRTIGELLAPAAPFDKKCGRENWTVAFAPDGSYFAWSQGHRTVKLVPWSQCLQNFLLHGTKNVTNSSSLRLPRQNSDGGQKNKPREHIIDCGDIVWSLAFGSSVPEKQSRCVNIEWHRFRFGQDQLLLATGLNNGRIKIWDVYTGKLLLNLVDHTEVVRDLTFAPDGSLILVSASRDKTLRVWDLKDDGNMMKVLRGHQNWVYSCAFSPDSSMLCSVGASKAVFLWNMDKYTMIRKLEGHHHDVVACDFSPDGALLATASYDTRVYIWDPHNGDILMEFGHLFPPPTPIFAGGANDRWVRSVSFSHDGLHVASLADDKMVRFWRIDEDYPVQVAPLSNGLCCAFSTDGSVLAAGTHDGSVYFWATPRQVPSLQHLCRMSIRRVMPTQEVQELPIPSKLLEFLSYRI
notes: Plasmid obtained from Dr. Cheol Yong Choi; also called Myc-WSB1; WSB1-Myc; not shown: Myc tag
B2: no binding (HA-tagged HIF-1α).
